Literature values as cited in paper PMC8695629.

Columns and labels:
CBX8 (Homo sapiens) = CBX8 (Homo sapiens) (UniProt Q9HC52)
[1] = molecular target: DOT1L 10-mer peptide (Homo sapiens) (UniProt Q8TEK3)
BCOR (Homo sapiens) = BCOR (Homo sapiens) (UniProt Q6W2J9)
[2] = molecular target: DOT1L 7-mer peptide (Homo sapiens) (UniProt Q8TEK3); assay: fluorescence polarization

Chain of UniProt Q9HC52 (Q9HC52 whole entry A335V): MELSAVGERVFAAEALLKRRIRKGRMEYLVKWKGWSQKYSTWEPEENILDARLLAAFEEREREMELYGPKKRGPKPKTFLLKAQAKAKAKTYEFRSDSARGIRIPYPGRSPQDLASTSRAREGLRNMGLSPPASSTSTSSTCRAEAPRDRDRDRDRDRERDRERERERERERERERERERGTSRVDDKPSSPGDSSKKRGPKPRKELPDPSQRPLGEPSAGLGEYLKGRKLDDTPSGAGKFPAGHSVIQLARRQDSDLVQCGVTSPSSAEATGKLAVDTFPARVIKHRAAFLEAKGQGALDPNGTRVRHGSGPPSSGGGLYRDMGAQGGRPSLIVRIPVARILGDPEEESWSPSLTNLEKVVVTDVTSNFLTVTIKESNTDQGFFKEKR
Chain of UniProt Q6W2J9 (Q6W2J9 whole entry): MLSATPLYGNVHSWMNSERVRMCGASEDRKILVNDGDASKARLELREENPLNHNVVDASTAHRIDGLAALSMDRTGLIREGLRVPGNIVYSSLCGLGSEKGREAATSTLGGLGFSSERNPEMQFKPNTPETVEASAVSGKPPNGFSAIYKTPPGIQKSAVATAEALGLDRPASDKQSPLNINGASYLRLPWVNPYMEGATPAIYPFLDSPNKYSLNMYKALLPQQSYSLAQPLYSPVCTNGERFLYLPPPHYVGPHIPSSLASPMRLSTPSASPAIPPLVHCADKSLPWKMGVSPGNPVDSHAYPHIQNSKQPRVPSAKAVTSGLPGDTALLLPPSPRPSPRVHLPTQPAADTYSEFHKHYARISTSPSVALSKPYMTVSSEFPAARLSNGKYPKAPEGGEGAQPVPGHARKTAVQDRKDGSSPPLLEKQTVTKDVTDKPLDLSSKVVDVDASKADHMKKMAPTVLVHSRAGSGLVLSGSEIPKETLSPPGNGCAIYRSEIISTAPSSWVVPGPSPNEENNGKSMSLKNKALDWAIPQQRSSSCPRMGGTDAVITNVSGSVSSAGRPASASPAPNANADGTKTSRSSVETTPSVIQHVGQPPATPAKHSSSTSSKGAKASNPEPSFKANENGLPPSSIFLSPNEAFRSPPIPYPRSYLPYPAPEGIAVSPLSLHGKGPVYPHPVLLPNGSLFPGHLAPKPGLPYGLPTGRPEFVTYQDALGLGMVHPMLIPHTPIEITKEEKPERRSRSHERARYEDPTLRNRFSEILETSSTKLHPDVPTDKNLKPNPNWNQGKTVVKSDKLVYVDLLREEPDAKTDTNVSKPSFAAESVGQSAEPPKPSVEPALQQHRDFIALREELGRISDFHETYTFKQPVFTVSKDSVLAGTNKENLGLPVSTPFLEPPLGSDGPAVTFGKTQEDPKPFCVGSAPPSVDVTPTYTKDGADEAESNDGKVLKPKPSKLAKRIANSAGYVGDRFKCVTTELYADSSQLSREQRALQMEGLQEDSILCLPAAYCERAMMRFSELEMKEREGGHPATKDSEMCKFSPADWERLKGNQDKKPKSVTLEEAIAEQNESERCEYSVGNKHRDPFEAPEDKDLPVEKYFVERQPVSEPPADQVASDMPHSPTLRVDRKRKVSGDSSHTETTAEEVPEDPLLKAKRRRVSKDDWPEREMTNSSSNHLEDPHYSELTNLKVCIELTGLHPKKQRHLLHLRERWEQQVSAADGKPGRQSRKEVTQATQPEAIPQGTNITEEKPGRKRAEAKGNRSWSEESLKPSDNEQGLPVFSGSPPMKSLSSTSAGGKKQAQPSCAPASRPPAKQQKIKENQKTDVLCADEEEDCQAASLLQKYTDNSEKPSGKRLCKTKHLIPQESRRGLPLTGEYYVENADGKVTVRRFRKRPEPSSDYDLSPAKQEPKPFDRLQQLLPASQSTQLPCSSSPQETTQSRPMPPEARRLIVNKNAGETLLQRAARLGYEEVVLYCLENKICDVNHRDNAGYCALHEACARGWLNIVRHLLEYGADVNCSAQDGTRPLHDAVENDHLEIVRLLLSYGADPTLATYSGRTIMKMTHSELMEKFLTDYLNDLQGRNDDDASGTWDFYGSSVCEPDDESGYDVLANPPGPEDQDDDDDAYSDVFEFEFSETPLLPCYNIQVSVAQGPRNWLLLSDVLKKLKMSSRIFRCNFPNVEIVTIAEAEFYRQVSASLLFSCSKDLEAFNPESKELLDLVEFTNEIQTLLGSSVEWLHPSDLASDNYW

Kd (CBX8 (Homo sapiens)): 12 nM
Kd [1]: 19 nM
Kd (BCOR (Homo sapiens)): > 3000 nM
Ki [2]: 160 nM
Substance: MLLT3 (AF9) AHD (from UniProt P42568)
